Laboratory results: article PMC8825253, “pHBMT1, a BAHD-family monolignol acyltransferase, mediates lignin acylation in poplar” (Plant Physiology, 2021)

Tests used:
Experiment in all cases: LC-MS product quantification, Lineweaver-Burk
Assay type in all cases: biochemical, Populus trichocarpa
COc1cc(/C=C/CO)ccc1O = conditions: saturating p-hydroxybenzoyl-CoA, 50 mM sodium phosphate pH 6, 1 mM DTT, wheatgerm cell-free enzyme
From the text: (§1) LC-MS product quantification, Lineweaver-Burk on pHBMT1 (Potri.001G448000)

COc1cc(/C=C/CO)cc(OC)c1O = conditions: saturating p-hydroxybenzoyl-CoA, 50 mM sodium phosphate pH 6, 1 mM DTT, wheatgerm cell-free enzyme
From the text: as §1

[1] = system: CC(C)(COP(=O)(O)OP(=O)(O)OC[C@H]1O[C@@H](n2cnc3c(N)ncnc32)[C@H](O)[C@@H]1OP(=O)(O)O)[C@@H](O)C(=O)NCCC(=O)NCCSC(=O)c1ccc(O)cc1; conditions: saturating sinapyl alcohol, 50 mM sodium phosphate pH 6, 1 mM DTT, wheatgerm cell-free enzyme
From the text: as §1

“pHBMT1 (Potri.001G448000) (Populus trichocarpa)” showed a Km (COc1cc(/C=C/CO)ccc1O) of 954 ± 411 µM, a kcat (COc1cc(/C=C/CO)ccc1O) of 0.1 ± 0.02 s⁻¹ and a Km (COc1cc(/C=C/CO)cc(OC)c1O) of 300 ± 72 µM. For the same substance, the kcat (COc1cc(/C=C/CO)cc(OC)c1O) was 0.13 ± 0.01 s⁻¹, the kcat/Km (COc1cc(/C=C/CO)cc(OC)c1O) was 490 M⁻¹ s⁻¹ and the Km [1] was 448 ± 21 µM. The kcat [1] was 0.18 ± 0.03 s⁻¹ and the kcat/Km [1] was 400 M⁻¹ s⁻¹.
